“Also recorded” adds a separate entry of the source. Like-named read-outs stand apart in the source and are kept apart here. Where no end group is shown, it is not given here.
What was measured:
HLA-A*0201 = target: T1, HLA-A*0201 (Homo sapiens, UniProt P04439, D140Y/D185E/D98H/E176V/E277Q/G131W/G231S/I119V/I121R/I166T/I218V/L300P/L318F/N151K/N90K/P208A/P217A/Q86G/Q94H/R138H/R169H/T345S); assay: Affinity of the peptide to T2 cell line (HLA-A*0201 binding, FACS with anti-HLA-A2 antibody); conditions: T2 cells
T1 construct: human tumoral cell T2 which expresses the HLA-A*0201 molecule; endogenous in cells; host or cells: T2 cells (human, TAP1/2 negative)
Description: (§1) T2 cells (5·10^4 cells per well) are incubated with decreasing concentrations of peptides from 100 μM to 0.1 μM (4 points: 100 μM, 10 μM, 1 μM, 0.1 μM) in serum-free medium (TexMacs) supplemented with 100 ng/μl of 2 Microglobulin at 37° C. for 16 hours.
The analysis is achieved by FACS (Macsquant analyzer 10 or a Macsquant analyzer 16-Miltenyi).

[1] = tested on: T2 cell lines loaded with bacterial peptide or human counterpart peptide; assay: Cytotoxic assay of peptide-specific CD8+ T cells against peptide-loaded T2 cells; format: cell-based
Excerpt: CD8+ T cells expanded per above were used to perform cytotoxic assays in presence of different ratios of target and effector cells to assess their cytotoxic capacity, using flow cytometry readout. Target cells were T2 cell lines loaded with bacterial peptide or human counterpart peptide. As a negative control T2 cells unloaded and T2 cells loaded with irrelevant peptide were employed.

[2] = tested on: HHD DR1 HLA-A2 transgenic mice; assay: ELISPOT-IFNγ assay on splenocytes of vaccinated HLA-A2 transgenic mice; format: in vivo, mouse; conditions: for cross-reactivity of induced T cells with the corresponding human peptide in ELISPOT-IFNγ: prime d0, boost d14, spleen d21, challenge with human peptide 10 μM
Description: Briefly, HLA-A2 HHD-DR1 humanized mice (C57BL/6JB2mtm1UnclAb−/−Tg(HLA-DRA, HLA-DRB1*0101)#GjhTg(HLA-A/H2-D/B2M)1 Bpe) were assigned randomly (based on mouse sex and age) to experimental groups, wherein each group was immunized with a specific vaccination peptide (vacc-pAg) combined to a common helper peptide (h-pAg UCP2; sequence: […]; SEQ ID NO: 39) (as outlined in Table 6 below).
The peptide formulation to be injected (emulsion) was prepared freshly on each day of injection and for each group. A mix for 10 animals was prepared using 2 mL luer lock syringes (4606701 V, B BRAUN) and luer lock female-female Combifix® Adapter (B. Braun, 5206634): 500 μL of peptide mixture in syringe 1 was emulsified with 500 μL of Montanide ISA 51 VG (Seppic) contained in syringe 2. The emulsification process was performed first by pushing the peptide mixture contained in syringe 1 into syringe 2 (containing Montanide) at very low speed. Transfer of the mixture from one syringe to another was then performed at very low speed during 6 cycles (one cycle corresponding to one passage from one syringe to another), and secondly at high speed, as fast as possible, for 1 minute. Each emulsion was prepared in excess to compensate for the dead volumes at injection.
The animals were immunized on day 0 (d0) with a prime injection, and on d14 with a boost injection. Each mouse was injected s.c. on the loose skin over the neck of the animals with 100 μL of an oil-based emulsion that contained: • 30 nmol of vacc-pAg and 30 or 100 μg of UCP2 helper peptide in 50 μL of a dedicated final solvent • Montanide ISA 51 VG (Seppic) added at 1:1 (v:v) ratio (50 μL per mouse).
Seven days after the boost injection (i.e. on d21), the animals were euthanized and the spleen was harvested. Splenocytes were prepared by mechanical disruption of the organ followed by 70 μm-filtering and Red blood cell lysis.
The cell suspensions were further used in an ELISPOT-IFN assay (Table 5). The cells were cultured in 200 μL of complete T cell medium. Experimental conditions (duplicates) were as follow: 2×10^5 total cells per well when cultured in presence of various pAg (10 μM) or medium-only; and 2×10^4 total cells when cultured in presence of the positive control PMA/lonomycin (PMA: Sigma P8139: 0.1 μM final; lonomycin: Sigma 10634: 1 μM final). The cultures were assessed for their capacity to secrete IFN (mouse IFN-ELISpotPLUS kit, Mabtech 3321-4APT-10), following the manufacturer's instructions (˜12-48h incubation time before performing the assay). The peptides used for restimulation are described in Table 7.
Spots were counted on a an iSpot Fluorospot Reader System (AID). Data plotting and statistical analysis were performed with the Prism-9 software (GraphPad Software Inc.).
The data were provided as a number of spots per 1·10^6 total T cells. The individual average values (obtained from the duplicates) were next used to plot the group average values. Statistical analysis for comparison (to the irrelevant peptide condition) were performed using unpaired non-parametric test (Mann Whitney) (**: p<0.01; *: p<0.05).

[3] = target: T2, HLA-A*0201 molecule expressed on human T2 cells (human); assay: T2 cell HLA-A*0201 binding assay, anti-HLA-A2-PE flow cytometry
T2 construct: surface HLA-A2 detected with anti-HLA-A2-PE (clone REA517); also called HLA-A2
Description: as §1, with “(5·10⁴” for “(5·10^4”, “hours. Cells are then washed two times and marked with the anti-HLA-A2 antibody coupled to PE (clone REA517, Miltenyi).” for “hours.”
For each peptide concentration, the geometric mean of the labelling associated with the peptide of interest is subtracted from background noise and reported as a percentage of the geometric mean of the HLA-A*0202 labelling obtained for the reference peptide HIV pol 589-597 at a concentration of 100 μM.

[4] = T cell clones expanded in vitro, flow cytometry readout (FIG. 18)

## LILDTVHSL [ANKRD30A-B2]
HLA-A*0201
  Concentration of peptide that induces 20% of HLA-A2 expression: 1.13 µM

## LVIGIILAV (listed as Homo sapiens) [CDH17-H1]
HLA-A*0201
  Concentration of peptide that induces 20% of HLA-A2 expression: 14.06 µM

## ALYDVRTIL (listed as Homo sapiens) [UBE2C-H1]
HLA-A*0201
  Concentration of peptide that induces 20% of HLA-A2 expression: 14.98 µM

## YLILEYAPL (listed as Homo sapiens) [AURKA-H1]
HLA-A*0201
  Concentration of peptide that induces 20% of HLA-A2 expression: 12.2 µM

## YLYDVRTAL [UBE2C-B11, b339 prints …]
HLA-A*0201
  Concentration of peptide that induces 20% of HLA-A2 expression: 0.87 µM

## FLYDVRTYL [UBE2C-B1]
[1]; [4]
  cytotoxic capacity of peptide-specific human T cell clones against T2 cells loaded with the bacteria peptide: have the capacity to kill T2 cells
  cytotoxic capacity of peptide-specific human T cell clones against T2 cells loaded with the human peptide: able to kill T2 cells loaded with the human
[1]; legend of FIG. 18
  cytotoxic capacity of peptide-specific T cells against T2 cells loaded with bacterial or human peptides: have the ability to kill T2 cells loaded with bacterial or human peptides

## SLPDRILTV [CDC20-B1]
[1]
  cytotoxic capacity of peptide-specific T cells against T2 cells loaded with bacterial or human peptides: have the ability to kill T2 cells loaded with bacterial or human peptides
  cytotoxic capacity of peptide-specific human T cell clones against T2 cells loaded with the bacteria peptide: have the capacity to kill T2 cells
  cytotoxic capacity of peptide-specific human T cell clones against T2 cells loaded with the human peptide: able to kill T2 cells loaded with the human

## KILDTVHSC (listed as Homo sapiens) [ANKRD30A-H2]
HLA-A*0201
  Concentration of peptide that induces 20% of HLA-A2 expression: 25.32 µM

## VLNPELLML [KIF2C-B13]
HLA-A*0201
  Concentration of peptide that induces 20% of HLA-A2 expression: 0.189 µM

## ALNPELLAL [KIF2C-B1, ALNPELLAL]
[1]
  cytotoxic capacity of peptide-specific T cells against T2 cells loaded with bacterial or human peptides: have the ability to kill T2 cells loaded with bacterial or human peptides
  cytotoxic capacity of peptide-specific human T cell clones against T2 cells loaded with the bacteria peptide: have the capacity to kill T2 cells
  cytotoxic capacity of peptide-specific human T cell clones against T2 cells loaded with the human peptide: able to kill T2 cells loaded with the human

## VMNPELLLL [KIF2C-B12]
HLA-A*0201
  Concentration of peptide that induces 20% of HLA-A2 expression: 0.258 µM

## AINPELLQL (listed as Homo sapiens) [KIF2C-H1]
HLA-A*0201
  Concentration of peptide that induces 20% of HLA-A2 expression: 22.55 µM

## IVWSDVTYV [MMP11-B1]
HLA-A*0201
  Concentration of peptide that induces 20% of HLA-A2 expression: 0.08 µM

## QMNPELLTL [KIF2C-B11]
HLA-A*0201
  Concentration of peptide that induces 20% of HLA-A2 expression: 0.909 µM

## KVWSDVTPL (listed as Homo sapiens) [MMP11-H1]
HLA-A*0201
  Concentration of peptide that induces 20% of HLA-A2 expression: 0.65 µM

## TLDQKLFMV [ANKRD30A-B3]
HLA-A*0201
  Concentration of peptide that induces 20% of HLA-A2 expression: 0.14 µM

## KIIGIILAV [CDH17-B1]
[2]; 30 nmol peptide + UCP2 helper in Montanide ISA 51 VG s.c., prime d0, boost d14, spleen d21, restimulation 10 μM
  immunogenicity: T cell response in ELISPOT-IFNγ: induced significant T cell responses; also recorded: strongly immunogenic; also recorded: induced strong immune responses
[2]
  cross-reactivity of induced T cells with the corresponding human peptide in ELISPOT-IFNγ: able to drive an effective immune response against the corresponding human peptide; also recorded: Cross-reactivity

## SLPDRILDA (listed as Homo sapiens) [CDC20-H1, reference compound]
[2]
  cross-reactivity of induced T cells with the corresponding human peptide in ELISPOT-IFNγ: Cross-reactivity
HLA-A*0201
  Concentration of peptide that induces 20% of HLA-A2 expression: 4.57 µM

## SLDQKLFQL (listed as Homo sapiens) [ANKRD30A-H3]
HLA-A*0201
  Concentration of peptide that induces 20% of HLA-A2 expression: 0.32 µM

## RLQQELMTL (listed as Homo sapiens) [UBE2C-H3]
HLA-A*0201
  Concentration of peptide that induces 20% of HLA-A2 expression: 1.06 µM

## AQIGIVAVV (listed as Homo sapiens) [OR51E2-H1]
HLA-A*0201
  Concentration of peptide that induces 20% of HLA-A2 expression: 5.68 µM

## AVIGIVAAV [OR51E2-B1]
HLA-A*0201
  Concentration of peptide that induces 20% of HLA-A2 expression: 0.7 µM

## ALYDVRTILL (listed as Homo sapiens) [UBEC2-H11]
HLA-A*0201
  Concentration of peptide that induces 20% of HLA-A2 expression: 14.87 µM

## SLLSIQSYV [UBE2C-B2]
HLA-A*0201
  Concentration of peptide that induces 20% of HLA-A2 expression: 0.22 µM

## ILLSIQSLL (listed as Homo sapiens) [UBE2C-H2]
HLA-A*0201
  Concentration of peptide that induces 20% of HLA-A2 expression: 3.27 µM

## YLILEYATV (also called ENT199_B1) [AURKA-B1]
[3]
  concentration of peptide that induces 20% of HLA-A2 expression: 1.16 µM

## YLSGANLFV (also called CEACAM-B1; ENT188_B1) [CEACAM5-B1]
[3]
  concentration of peptide that induces 20% of HLA-A2 expression: 0.5 µM
  in vitro binding affinity (relative affinity, normalized against HIV-pol): 0.5 ratio to HIV pol reference peptide
  mean relative fluorescence intensity at 0.1 µM peptide: 7.7 % of HIV pol reference peptide
  mean relative fluorescence intensity at 1 µM peptide: 30.8 % of HIV pol reference peptide
  mean relative fluorescence intensity at 10 µM peptide: 69.2 % of HIV pol reference peptide
  mean relative fluorescence intensity at 100 µM peptide: 76 % of HIV pol reference peptide

## LVIGIILAV (also called ENT176-H) [CDH17-H1]
[3]
  concentration of peptide that induces 20% of HLA-A2 expression: 14.1 µM
  in vitro binding affinity (relative affinity, normalized against HIV-pol): 14.9 ratio to HIV pol reference peptide
  mean relative fluorescence intensity at 0.1 µM peptide: 0.5 % of HIV pol reference peptide
  mean relative fluorescence intensity at 1 µM peptide: 3.7 % of HIV pol reference peptide
  mean relative fluorescence intensity at 10 µM peptide: 17.6 % of HIV pol reference peptide

## YLILEYAPL [AURKA-H1]
[3]
  concentration of peptide that induces 20% of HLA-A2 expression: 12.2 µM
  in vitro binding affinity (relative affinity, normalized against HIV-pol): 22.8 ratio to HIV pol reference peptide
  mean relative fluorescence intensity at 0.1 µM peptide: 0 % of HIV pol reference peptide
  mean relative fluorescence intensity at 1 µM peptide: 0 % of HIV pol reference peptide
  mean relative fluorescence intensity at 10 µM peptide: 13.1 % of HIV pol reference peptide
  mean relative fluorescence intensity at 100 µM peptide: 164 % of HIV pol reference peptide

## KIIGIILAV (also called ENT176_B1; ENT_176-B1) [CDH17-B1]
[3]
  concentration of peptide that induces 20% of HLA-A2 expression: 0.2 µM

## TLDQKLFMV (also called ENT180_B1) [ANKRD30A-B3]
[3]
  concentration of peptide that induces 20% of HLA-A2 expression: 0.14 µM
  in vitro binding affinity (relative affinity, normalized against HIV-pol): 0.2 ratio to HIV pol reference peptide
  mean relative fluorescence intensity at 0.1 µM peptide: 18.8 % of HIV pol reference peptide
  mean relative fluorescence intensity at 1 µM peptide: 67.5 % of HIV pol reference peptide
  mean relative fluorescence intensity at 10 µM peptide: 120 % of HIV pol reference peptide
  mean relative fluorescence intensity at 100 µM peptide: 112 % of HIV pol reference peptide

## KILDTVHSC [ANKRD30A-H2]
[3]
  concentration of peptide that induces 20% of HLA-A2 expression: 25.3 µM
  in vitro binding affinity (relative affinity, normalized against HIV-pol): 29.9 ratio to HIV pol reference peptide
  mean relative fluorescence intensity at 0.1 µM peptide: 1.2 % of HIV pol reference peptide
  mean relative fluorescence intensity at 1 µM peptide: 1.8 % of HIV pol reference peptide
  mean relative fluorescence intensity at 10 µM peptide: 8.7 % of HIV pol reference peptide
  mean relative fluorescence intensity at 100 µM peptide: 52.3 % of HIV pol reference peptide

## SLDQKLFQL [ANKRD30A-H3]
[3]
  concentration of peptide that induces 20% of HLA-A2 expression: 0.32 µM
  in vitro binding affinity (relative affinity, normalized against HIV-pol): 0.4 ratio to HIV pol reference peptide
  mean relative fluorescence intensity at 0.1 µM peptide: 5.9 % of HIV pol reference peptide
  mean relative fluorescence intensity at 1 µM peptide: 41.9 % of HIV pol reference peptide
  mean relative fluorescence intensity at 10 µM peptide: 99.1 % of HIV pol reference peptide
  mean relative fluorescence intensity at 100 µM peptide: 97.1 % of HIV pol reference peptide
